{"source": "patent US20140005119A1", "about": "“COMPOSITIONS AND METHODS FOR INHIBITING THE ACTIVITY OF P110a MUTANT PROTEINS” (Case Western Reserve University, priority 2012, published 2014)", "key": {"[1]": {"target": "T1, recombinant p110α E545K mutant protein (Homo sapiens, UniProt P42336, E545K)", "T1 construct": "6×His; made in house; host or cells: Sf9 insect cells (baculovirus)", "T1 sequence (P42336 whole entry E545K)": "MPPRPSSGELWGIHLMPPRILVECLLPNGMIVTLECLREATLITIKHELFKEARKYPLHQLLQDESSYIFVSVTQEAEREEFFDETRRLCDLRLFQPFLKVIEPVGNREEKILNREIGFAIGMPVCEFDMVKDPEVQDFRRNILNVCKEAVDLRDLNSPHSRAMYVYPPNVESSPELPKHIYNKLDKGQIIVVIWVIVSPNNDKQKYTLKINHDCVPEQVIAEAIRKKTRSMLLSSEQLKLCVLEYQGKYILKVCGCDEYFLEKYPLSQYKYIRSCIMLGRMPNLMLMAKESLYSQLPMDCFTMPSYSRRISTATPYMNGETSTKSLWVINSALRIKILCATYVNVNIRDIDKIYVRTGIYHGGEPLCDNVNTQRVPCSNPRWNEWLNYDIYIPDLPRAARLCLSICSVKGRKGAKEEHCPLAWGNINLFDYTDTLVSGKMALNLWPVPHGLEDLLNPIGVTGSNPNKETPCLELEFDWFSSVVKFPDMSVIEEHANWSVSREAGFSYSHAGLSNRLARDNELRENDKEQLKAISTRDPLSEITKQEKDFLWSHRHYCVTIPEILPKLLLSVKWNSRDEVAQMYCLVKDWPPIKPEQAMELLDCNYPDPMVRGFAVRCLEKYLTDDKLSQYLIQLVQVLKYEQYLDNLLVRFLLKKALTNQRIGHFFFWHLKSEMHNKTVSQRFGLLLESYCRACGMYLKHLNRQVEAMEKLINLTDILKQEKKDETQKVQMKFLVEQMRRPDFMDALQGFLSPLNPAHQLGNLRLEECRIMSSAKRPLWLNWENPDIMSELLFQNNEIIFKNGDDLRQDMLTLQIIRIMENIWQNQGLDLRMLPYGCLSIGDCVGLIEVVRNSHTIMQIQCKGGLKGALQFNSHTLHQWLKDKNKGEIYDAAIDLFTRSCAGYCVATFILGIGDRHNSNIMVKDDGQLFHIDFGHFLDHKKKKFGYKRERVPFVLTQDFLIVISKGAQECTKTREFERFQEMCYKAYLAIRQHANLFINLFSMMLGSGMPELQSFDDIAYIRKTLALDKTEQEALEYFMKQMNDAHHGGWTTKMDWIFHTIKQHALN", "T1 sequence (P27986 322-600 partner limits assumed)": "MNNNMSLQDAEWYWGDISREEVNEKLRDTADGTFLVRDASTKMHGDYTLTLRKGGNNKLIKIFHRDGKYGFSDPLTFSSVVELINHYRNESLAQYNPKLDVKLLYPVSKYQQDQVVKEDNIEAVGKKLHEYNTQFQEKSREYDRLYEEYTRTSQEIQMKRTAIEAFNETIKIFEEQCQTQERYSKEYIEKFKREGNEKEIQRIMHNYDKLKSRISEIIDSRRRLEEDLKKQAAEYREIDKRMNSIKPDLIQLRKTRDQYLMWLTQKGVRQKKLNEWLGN", "assay": "In vitro lipid kinase assay", "type": "biochemical", "details": "either alone or in the presence of IRS1", "method": "FIGS. 3(A-M) illustrate: (A, B) Mapping peptides (P3, SEQ ID NO: 1; P4 SEQ ID NO: 2; P5, SEQ ID NO: 3; P6, SEQ ID NO: 4) derived from mutant p110α that inhibit interaction between IRS1 and p110α E545K. The indicated peptides were added into cell lysates made from the p110α E545K 3×FLAG KI cells. Cell lysates were immunoprecipitated with beads conjugated with anti-FLAG antibodies and then blotted with anti-IRS1 antibodies. (C) Immunoblots of cell lysates made from the p110α E545K 3×FLAG KI cells. Cell lysates were immunoprecipitated with beads conjugated with anti-FLAG antibodies and then blotted with the indicated antibodies. (D) Immunoblots of cell lysate of Myc-tagged IRS1 plasmid, which co-transfected an ABD domain deletion construct of the FLAG-tagged p110α E545K mutant (ΔABD), incubated with the indicated amount of stapled p110α mutant peptides, and then immunoprecipitated with anti-FLAG antibodies and blotted with the indicated antibodies. (J, K) Immunoblot and graph of purified recombinant p110α E545K mutant proteins mixed with the indicated components and quantified using an in vitro lipid kinase assay. (L, M) Immunoblots of the indicated cell lines serum-starved, stimulated with 1 μg/ml insulin for 30 min, and then treated with or without the indicated peptides. Cell lysates were blotted with the indicated antibodies. All error bars show mean±SEM. *p<0.05, **p<0.001, t test. […]"}, "[2]": {"tested_on": "IRS1 phosphorylation", "assay": "Immunoblot of treated cells, IRS1 phosphorylation", "type": "cell-based, human", "method": "FIG. 4(A-F) illustrate: (A) Schematic diagram of linear and stapled WT and mutant peptides derived from p110α (SEQ ID NOs: 5, 6, 7 and 8). (B) Immunoblots of cell lysates immunoprecipitated with beads conjugated with anti-FLAG antibodies and then blotted with the indicated antibodies. Linear or stapled WT and mutant peptide were added into culture medium of the p110α E545K 3×FLAG KI cells for 16 hr. (C) Immunoblots of cell lysates immunoprecipitated with anti-p110α antibodies and then blotted with the indicated antibodies. Vaco481 CRC cells were treated with the stapled mutant peptides at the indicated concentration. (D) Immunoblots of cell lysates blotted with the indicated antibodies. The indicated cell lines were treated with the stapled mutant peptide. (E) Immunoblots of cell lysates blotted with the indicated antibodies. […]\nFor Co-immunoprecipitation (Co-IP), cells were harvested, washed with PBS, and then lysed in IP buffer (50 mMTris [pH 7.4], 150 mMNaCl, 5 mMEDTA [pH 8.0], 0.5% NP40, 1 mM PMSF, complete Protease Inhibitor Cocktail tablet [Roche]; supplemented with phosphatase inhibitors [1 mM Na3VO4, 20 mM NaF, 0.1 mM b-glycerophosphate, 20 mM sodium pyrophosphate] when necessary). […] Lysates were then cleared by centrifugation (14,000 rpm, 10 min) and protein concentration in supernatants was determined with a BCA protein assay kit (Pierce, Rockford, Ill.). […]"}}, "data": [{"substance": "H2N-SEITKQEK-D^549-FLW-S^553-HRHYC-COOH [stapled mutant peptide]", "values": [{"measurement": "kinase activity of recombinant p110α", "setting": "[1]", "result": "no effect"}, {"measurement": "IRS1 phosphorylation", "setting": "[2]", "result": "did not interfere"}]}]}
